Target: PRRSV-2 nucleocapsid (N) protein with Myc tag
Test: ELISA
Conditions: mutated N-His as coating antigen; N-Myc added; parent: est. 0.97; read off a plot

Question: With “PRRSV-2 nucleocapsid (N) protein with His tag Q109A” as the substance, how does the response read?
Answer: The response was 0.7 OD450nm.

Question: For “PRRSV-2 nucleocapsid (N) protein with His tag S105A”, which response is on record?
Answer: Its response is 0.28 OD450nm.

Question: Which response does the source give for “PRRSV-2 nucleocapsid (N) protein with His tag S105A; T108A; Q109A” here?
Answer: The response was 0.2 OD450nm.

Question: For “PRRSV-2 nucleocapsid (N) protein with His tag T108A”, which response is on record?
Answer: The response was 1 OD450nm.
